Results on 25 sequences are retold here after the supplement of paper PMC9732359.

± gives the uncertainty stated by the source.

The series can be described thus: protein stability index of a GFP-peptide fusion (yeast GPS) (PSI 1-4); higher = more stable; sorted into four equal gates, so the index is relative within each strain. Put shortly:
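Peptides tiling yeast proteins in 17-residue segments were fused downstream of GFP, with Cherry expressed from the same plasmid. As a pooled library in yeast, mid-log cultures grown in leucine-free medium were sorted into four equal gates by GFP/Cherry fluorescence ratio. Gate plasmids were PCR-amplified and Illumina-sequenced, and barcodes linked reads to strains. Each peptide received a protein stability index equal to the sum of each gate's read frequency times its gate number.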

As to PTVKYNRKVRAGRGFTL [RPL13A], the protein stability index reads like this: (doa10∆) 2.62 ± 0.059; (pdr5∆) 2.87 ± 0.058; (san1∆) 2.94 ± 0.045; (ubr1∆) 2.78 ± 0.053.

As for DTLNETNLKMKRKWSYV [RRP43], the protein stability index by setting is: (doa10∆) 2.24 ± 0.061; (pdr5∆) 2.56 ± 0.04; (san1∆) 2.98 ± 0.1; (ubr1∆) 2.61 ± 0.073.

As to HRLIATHTNLERDEQKR [SNF2], the protein stability index reads like this: (doa10∆) 3.38 ± 0.069; (pdr5∆) 3.25 ± 0.074; (san1∆) 3.01 ± 0.11; (ubr1∆) 3.32 ± 0.048.

As for KFNELVKLMKNITDYET [BRR2], the protein stability index was found to be 1.11 ± 0.042 (doa10∆), 1.21 ± 0.06 (pdr5∆), 1.21 ± 0.14 (san1∆) and 1.3 ± 0.056 (ubr1∆).

For RAFLIEEQKIVKKVVKE [RPL34A], the protein stability index reads like this: (doa10∆) 3.25 ± 0.099; (pdr5∆) 3.02 ± 0.13; (san1∆) 2.99 ± 0.12; (ubr1∆) 3.26 ± 0.091.

Turning to GILGNKAQAKMDKRAKT [RPL8B], the protein stability index runs as follows: (doa10∆) 3.58 ± 0.12; (pdr5∆) 3.48 ± 0.15; (san1∆) 3.4 ± 0.058; (ubr1∆) 3.63 ± 0.079.

With GGGHVSQVYAIRQAIAK [RPS16A], the protein stability index was found to be 2.63 ± 0.05 (doa10∆), 2.85 ± 0.045 (pdr5∆), 2.75 ± 0.053 (san1∆) and 2.62 ± 0.043 (ubr1∆).

For INQYQLLYNLKNDILTN [SWI1], the protein stability index runs as follows: (doa10∆) 1.63 ± 0.038; (pdr5∆) 1.33 ± 0.049; (san1∆) 1.28 ± 0.1; (ubr1∆) 1.18 ± 0.036.

Consider QWTGGRGGGHHSFEDAH [FAS1], for which the protein stability index by setting is: (doa10∆) 3.21 ± 0.24; (pdr5∆) 3.47 ± 0.2.

Consider TYNMIDAAAEKRNGDEV [ARP7], for which the protein stability index is, setting by setting: (doa10∆) 2.85 ± 0.066; (pdr5∆) 3.03 ± 0.07; (san1∆) 3.13 ± 0.055; (ubr1∆) 3.18 ± 0.044.

Regarding IEPVTKVSSLKMFIQRI [YCS4], the protein stability index is, setting by setting: (doa10∆) 2.91 ± 0.064; (pdr5∆) 2.9 ± 0.065; (san1∆) 3.17 ± 0.048; (ubr1∆) 3.31 ± 0.065.

YTKKHLSSHSSTNSNSK [RPN4]: the protein stability index was found to be 3.37 ± 0.14 (doa10∆), 3.11 ± 0.076 (pdr5∆), 2.95 ± 0.055 (san1∆) and 2.95 ± 0.061 (ubr1∆).

As to VYSVDPLEKITDAYLDQ [PRP8], the protein stability index was 3.33 ± 0.17 (doa10∆), 3.11 ± 0.15 (pdr5∆), 2.98 ± 0.1 (san1∆) and 3.15 ± 0.15 (ubr1∆).

For STKVENSAIIQNLRKEL [YIL149C/MLP2], the protein stability index was 3.2 ± 0.084 (doa10∆), 2.88 ± 0.12 (pdr5∆), 3.28 ± 0.071 (san1∆) and 3.3 ± 0.051 (ubr1∆).

For TLILIQNPENLLSEKIL [SIR3], the protein stability index (doa10∆) is 2.98 ± 0.062, the protein stability index (pdr5∆) was determined as 2.88 ± 0.07, the protein stability index (san1∆) is 2.87 ± 0.046 and the protein stability index (ubr1∆) was 3.16 ± 0.06.

Regarding ILVFQVSMKANKYQIKK [RPL25], the protein stability index is, setting by setting: (doa10∆) 1.93 ± 0.052; (pdr5∆) 2.2 ± 0.054; (san1∆) 3.09 ± 0.046; (ubr1∆) 3.03 ± 0.045.

Take QQRGITYLNEVLEKDAA [YGR119C/NUP57]: the protein stability index reads like this: (doa10∆) 3.16 ± 0.093; (pdr5∆) 3.27 ± 0.079; (san1∆) 3.33 ± 0.061; (ubr1∆) 3.13 ± 0.09.

For the sequence EKTINDLQRTQTLSEKE [YIL149C/MLP2], the protein stability index reads like this: (doa10∆) 2.97 ± 0.071; (pdr5∆) 3.03 ± 0.06; (san1∆) 2.94 ± 0.044; (ubr1∆) 2.94 ± 0.042.

With GFGRKGKAKGDIPGVRF [RPS23A], the protein stability index is 3.19 ± 0.14 (doa10∆), 3.23 ± 0.13 (pdr5∆), 3.42 ± 0.052 (san1∆) and 3.22 ± 0.094 (ubr1∆).

On to IDMGEDKENVPVEKVKE [DPB4], for which the protein stability index runs as follows: (doa10∆) 3.41 ± 0.23; (pdr5∆) 3.45 ± 0.14; (san1∆) 3.29 ± 0.21; (ubr1∆) 3.67 ± 0.13.

For the sequence FHFRAPSRIFYKALRGM [RPL16A], the protein stability index (doa10∆) is 1.97 ± 0.24, the protein stability index (pdr5∆) was found to be 2.4 ± 0.18, the protein stability index (san1∆) came to 2.27 ± 0.14 and the protein stability index (ubr1∆) came out at 2.43 ± 0.14.

For IYDKKDHKYVCTFSMEP [SRB8], the protein stability index by setting is: (doa10∆) 2.85 ± 0.076; (pdr5∆) 2.99 ± 0.11; (san1∆) 2.78 ± 0.06; (ubr1∆) 3 ± 0.069.

MIELICSSATVPKHMLD [AAR2] displayed a protein stability index (doa10∆) of 1.85 ± 0.082, a protein stability index (pdr5∆) of 2.26 ± 0.078, a protein stability index (san1∆) of 1.82 ± 0.11 and a protein stability index (ubr1∆) of 1.94 ± 0.058.

Turning to ESAVKYALAAKDRFDID [RPN2], the protein stability index by setting is: (doa10∆) 3.54 ± 0.27; (pdr5∆) 3.09 ± 0.29; (san1∆) 2.87 ± 0.22; (ubr1∆) 3.45 ± 0.1.

On to DEATVPNTRDAESEAIT [SWI3], for which the protein stability index is, setting by setting: (doa10∆) 3.09 ± 0.077; (pdr5∆) 3.15 ± 0.06; (san1∆) 3.18 ± 0.066; (ubr1∆) 3.23 ± 0.052.
